In test [1] the target is USP7 (endogenous) (UniProt Q93009). Nature of the test: APEX2-Gal9 proximity biotinylation, SILAC LC-MS/MS, LLOMe; third of three experiments.
The target is the same in test [2]. Description: APEX2-Gal9 proximity biotinylation, SILAC LC-MS/MS, GPN; first of three experiments.
The target is the same in test [3]. Description: APEX2-Gal9 proximity biotinylation, SILAC LC-MS/MS, LLOMe; first of three experiments.
The target is the same in test [4]. Description: APEX2-Gal9 proximity biotinylation, SILAC LC-MS/MS, GPN; second of three experiments.
Test [5] shares this target. Nature of the test: APEX2-Gal9 proximity biotinylation, SILAC LC-MS/MS, LLOMe; second of three experiments.
Test [6] has the same target. Description: APEX2-Gal9 proximity biotinylation, SILAC LC-MS/MS, GPN; third of three experiments.

Chain of USP7 (endogenous) (Q93009 whole entry): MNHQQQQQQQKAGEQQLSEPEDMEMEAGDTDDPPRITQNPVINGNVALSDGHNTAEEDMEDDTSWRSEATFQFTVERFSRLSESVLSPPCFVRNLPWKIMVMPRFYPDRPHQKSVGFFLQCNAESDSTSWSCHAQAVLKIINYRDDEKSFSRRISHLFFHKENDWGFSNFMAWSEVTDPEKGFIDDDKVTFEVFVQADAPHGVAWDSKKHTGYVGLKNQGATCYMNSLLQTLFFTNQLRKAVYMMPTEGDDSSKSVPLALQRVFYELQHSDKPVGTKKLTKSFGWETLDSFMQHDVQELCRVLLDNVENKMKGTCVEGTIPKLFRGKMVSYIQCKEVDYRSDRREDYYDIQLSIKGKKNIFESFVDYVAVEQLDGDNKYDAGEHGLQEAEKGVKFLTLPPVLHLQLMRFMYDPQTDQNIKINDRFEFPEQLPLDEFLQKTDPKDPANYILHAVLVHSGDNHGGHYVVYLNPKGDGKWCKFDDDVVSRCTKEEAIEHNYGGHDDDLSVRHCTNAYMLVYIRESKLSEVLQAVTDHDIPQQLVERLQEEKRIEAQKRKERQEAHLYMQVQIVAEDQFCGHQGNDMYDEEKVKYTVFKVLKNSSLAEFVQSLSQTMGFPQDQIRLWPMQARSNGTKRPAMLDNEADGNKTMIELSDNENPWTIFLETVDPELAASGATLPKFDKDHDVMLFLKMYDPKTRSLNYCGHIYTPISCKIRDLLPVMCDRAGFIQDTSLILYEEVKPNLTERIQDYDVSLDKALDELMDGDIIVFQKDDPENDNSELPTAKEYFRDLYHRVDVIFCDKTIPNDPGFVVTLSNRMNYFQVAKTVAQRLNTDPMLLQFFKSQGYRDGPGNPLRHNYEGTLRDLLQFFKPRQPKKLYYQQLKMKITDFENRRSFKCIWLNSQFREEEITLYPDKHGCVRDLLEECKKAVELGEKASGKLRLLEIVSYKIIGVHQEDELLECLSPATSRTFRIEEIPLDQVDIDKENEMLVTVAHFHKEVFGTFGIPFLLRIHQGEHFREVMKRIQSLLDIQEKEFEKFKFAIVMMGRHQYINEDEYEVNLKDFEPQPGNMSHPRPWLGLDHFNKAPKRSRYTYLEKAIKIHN

Take “APEX2-myc-Gal9 (from UniProt O00182 1-323)”: the peptide counts (peptide counts) with USP7 (endogenous) [1] worked out at 2; with USP7 (endogenous) [2] it was 3; with USP7 (endogenous) [3] it was 2; in the test with USP7 (endogenous) [4], 4; in the test with USP7 (endogenous) [5] it was 3; in the test with USP7 (endogenous) [6], 3.

(Values after US20210205286A1.)
